In paper PMC10557571 (bioRxiv, 2023):

Molecular target: the molecule itself
Experiment: SDS-PAGE under non-reducing and reducing conditions with anti-Flag western blot

Protein | stoichiometry N
Flag-tagged mature Activin E from Construct II (ligand, human, UniProt P58166 237-350, looked up) TPTCEPATPLCCRRDHYVDFQELGWRDWILQPEGYQLNYCSGQCPPHLAGSPGIAASFHSAVFSLLKANNPWPASTSCCVPTARRPLSLLYLDHNGNVVKTDVPDMVVEACGCS | 2
Unprocessed Activin E precursor from Construct I (natural protein, human, UniProt P58166 20-350, looked up) QGTGSVCPSCGGSKLAPQAERALVLELAKQQILDGLHLTSRPRITHPPPQAALTRALRRLQPGSVAPGNGEEVISFATVTDSTSAYSSLLTFHLSTPRSHHLYHARLWLHVLPTLPGTLCLRIFRWGPRRRRQGSRTLLAEHHITNLGWHTLTLPSSGLRGEKSGVLKLQLDCRPLEGNSTVTGQPRRLLDTAGHQQPFLELKIRANEPGAGRRRRRTPTCEPATPLCCRRDHYVDFQELGWRDWILQPEGYQLNYCSGQCPPHLAGSPGIAASFHSAVFSLLKANNPWPASTSCCVPTARRPLSLLYLDHNGNVVKTDVPDMVVEACGCS | 2
